According to PMC9605926, “Safety of [^177Lu]Lu-NeoB treatment: a preclinical study characterizing absorbed dose and acute, early, and late organ toxicity” (European Journal of Nuclear Medicine and Molecular Imaging, 2022):

Test: Dosimetry: absorbed organ dose from biodistribution data (MIRD scheme, RADAR mouse phantom)
Type: in vivo
Protocol: Data obtained during the in vivo biodistribution studies were used to calculate the absorbed dose for each organ according to the MIRD-scheme. The time integrated activity concentration coefficients were determined by fitting exponential curves to the activity concentration data points at 1, 4, 24, 48, 96, and 168 h p.i. and integrating these curves over time. The least squares fitting analysis was performed with GraphPad Prism software. The S-values for lutetium-177 were based on the 24 g realistic RADAR mouse phantom. The standard organ weights of this model were used to convert from activity concentration to activity. With this model, the absorbed dose in most organs could be calculated. S-values for organs not included in the mouse model, such as adrenal glands and prostate, were determined with the spherical node model within the Olinda/EXM code.
The absorbed doses determined from the biodistribution assay were extrapolated to the dose the animals received during the radiotoxicity study. Here, the animals received 3 consecutive injections with a 7-day interval.

[1] = female, 3× 120 MBq/1200 pmol, extrapolated cumulative
[2] = male, 3× 40 MBq/400 pmol, extrapolated cumulative
[3] = male, 3× 80 MBq/800 pmol, extrapolated cumulative
[4] = male, 3× 120 MBq/1200 pmol, extrapolated cumulative

## CC(C)CC(CC(C)C)NC(=O)[C@H](Cc1cnc[nH]1)NC(=O)CNC(=O)[C@@H](NC(=O)[C@H](C)NC(=O)[C@H](Cc1c[nH]c2ccccc12)NC(=O)[C@H](CCC(N)=O)NC(=O)[C@@H](Cc1ccccc1)NC(=O)COCC(=O)Nc1ccc(CNC(=O)CN2CCN(CC(=O)O)CCN(CC(=O)O)CCN(CC(=O)O)CC2)cc1)C(C)C [[^177Lu]Lu-NeoB, metal not drawn]
female, 1× 120 MBq/1200 pmol
  Absorbed dose adrenal glands: 0.82 Gy
  Absorbed dose brain: 0.12 Gy
  Absorbed dose colon wall: 1.81 Gy
  Absorbed dose heart wall: 0.42 Gy
  Absorbed dose kidneys: 5.24 Gy
  Absorbed dose liver: 4.37 Gy
  Absorbed dose lungs: 0.62 Gy
  Absorbed dose mammary fat pad: 1.11 Gy
  Absorbed dose osteogenic cells: 0.07 Gy
  Absorbed dose ovaries: 0.53 Gy
  Absorbed dose pancreas: 3.30 Gy
  Absorbed dose small intestine: 1.80 Gy
  Absorbed dose spleen: 0.68 Gy
  Absorbed dose stomach wall: 1.31 Gy
  Absorbed dose total body: 0.65 Gy
  Absorbed dose urinary bladder: 0.05 Gy
[1]
  Absorbed dose adrenal glands: 2.47 Gy
  Absorbed dose brain: 0.35 Gy
  Absorbed dose colon wall: 5.43 Gy
  Absorbed dose heart wall: 1.27 Gy
  Absorbed dose kidneys: 15.71 Gy
  Absorbed dose liver: 13.11 Gy
  Absorbed dose lungs: 1.87 Gy
  Absorbed dose mammary fat pad: 3.34 Gy
  Absorbed dose osteogenic cells: 0.21 Gy
  Absorbed dose ovaries: 1.60 Gy
  Absorbed dose pancreas: 9.89 Gy
  Absorbed dose small intestine: 5.40 Gy
  Absorbed dose spleen: 2.05 Gy
  Absorbed dose stomach wall: 3.94 Gy
  Absorbed dose total body: 1.95 Gy
  Absorbed dose urinary bladder: 0.15 Gy
male, 1× 40 MBq/400 pmol
  Absorbed dose adrenal glands: 0.58 Gy
  Absorbed dose brain: 0.05 Gy
  Absorbed dose colon wall: 0.81 Gy
  Absorbed dose heart wall: 0.25 Gy
  Absorbed dose kidneys: 2.00 Gy
  Absorbed dose liver: 2.11 Gy
  Absorbed dose lungs: 0.35 Gy
  Absorbed dose mammary fat pad: 0.27 Gy
  Absorbed dose osteogenic cells: 0.03 Gy
  Absorbed dose pancreas: 2.23 Gy
  Absorbed dose prostate gland: 0.35 Gy
  Absorbed dose small intestine: 0.80 Gy
  Absorbed dose spleen: 0.50 Gy
  Absorbed dose stomach wall: 1.50 Gy
  Absorbed dose testes: 0.02 Gy
  Absorbed dose total body: 0.31 Gy
  Absorbed dose urinary bladder: 0.02 Gy
male, 1× 80 MBq/800 pmol
  Absorbed dose adrenal glands: 0.54 Gy
  Absorbed dose brain: 0.12 Gy
  Absorbed dose colon wall: 1.21 Gy
  Absorbed dose heart wall: 0.46 Gy
  Absorbed dose kidneys: 3.25 Gy
  Absorbed dose liver: 3.28 Gy
  Absorbed dose lungs: 0.87 Gy
  Absorbed dose mammary fat pad: 0.23 Gy
  Absorbed dose osteogenic cells: 0.06 Gy
  Absorbed dose pancreas: 2.31 Gy
  Absorbed dose prostate gland: 0.68 Gy
  Absorbed dose small intestine: 1.21 Gy
  Absorbed dose spleen: 0.72 Gy
  Absorbed dose stomach wall: 1.50 Gy
  Absorbed dose testes: 0.04 Gy
  Absorbed dose total body: 0.47 Gy
  Absorbed dose urinary bladder: 0.04 Gy
male, 1× 120 MBq/1200 pmol
  Absorbed dose adrenal glands: 0.66 Gy
  Absorbed dose brain: 0.15 Gy
  Absorbed dose colon wall: 0.93 Gy
  Absorbed dose heart wall: 0.68 Gy
  Absorbed dose kidneys: 3.21 Gy
  Absorbed dose liver: 5.61 Gy
  Absorbed dose lungs: 3.91 Gy
  Absorbed dose mammary fat pad: 0.49 Gy
  Absorbed dose osteogenic cells: 0.12 Gy
  Absorbed dose pancreas: 1.54 Gy
  Absorbed dose prostate gland: 0.37 Gy
  Absorbed dose small intestine: 0.94 Gy
  Absorbed dose spleen: 1.35 Gy
  Absorbed dose stomach wall: 1.38 Gy
  Absorbed dose testes: 0.08 Gy
  Absorbed dose total body: 0.66 Gy
  Absorbed dose urinary bladder: 0.08 Gy
[2]
  Absorbed dose adrenal glands: 1.74 Gy
  Absorbed dose brain: 0.15 Gy
  Absorbed dose colon wall: 2.43 Gy
  Absorbed dose heart wall: 0.75 Gy
  Absorbed dose kidneys: 6.00 Gy
  Absorbed dose liver: 6.33 Gy
  Absorbed dose lungs: 1.05 Gy
  Absorbed dose mammary fat pad: 0.81 Gy
  Absorbed dose osteogenic cells: 0.09 Gy
  Absorbed dose pancreas: 6.69 Gy
  Absorbed dose prostate gland: 1.05 Gy
  Absorbed dose small intestine: 2.40 Gy
  Absorbed dose spleen: 1.50 Gy
  Absorbed dose stomach wall: 4.50 Gy
  Absorbed dose testes: 0.06 Gy
  Absorbed dose total body: 0.93 Gy
  Absorbed dose urinary bladder: 0.06 Gy
[3]
  Absorbed dose adrenal glands: 1.62 Gy
  Absorbed dose brain: 0.36 Gy
  Absorbed dose colon wall: 3.63 Gy
  Absorbed dose heart wall: 1.38 Gy
  Absorbed dose kidneys: 9.75 Gy
  Absorbed dose liver: 9.84 Gy
  Absorbed dose lungs: 2.61 Gy
  Absorbed dose mammary fat pad: 0.69 Gy
  Absorbed dose osteogenic cells: 0.18 Gy
  Absorbed dose pancreas: 6.93 Gy
  Absorbed dose prostate gland: 2.04 Gy
  Absorbed dose small intestine: 3.63 Gy
  Absorbed dose spleen: 2.16 Gy
  Absorbed dose stomach wall: 4.50 Gy
  Absorbed dose testes: 0.12 Gy
  Absorbed dose total body: 1.41 Gy
  Absorbed dose urinary bladder: 0.12 Gy
[4]
  Absorbed dose adrenal glands: 1.99 Gy
  Absorbed dose brain: 0.44 Gy
  Absorbed dose colon wall: 2.80 Gy
  Absorbed dose heart wall: 2.03 Gy
  Absorbed dose kidneys: 9.62 Gy
  Absorbed dose liver: 16.84 Gy
  Absorbed dose lungs: 11.72 Gy
  Absorbed dose mammary fat pad: 1.47 Gy
  Absorbed dose osteogenic cells: 0.37 Gy
  Absorbed dose pancreas: 4.61 Gy
  Absorbed dose prostate gland: 1.10 Gy
  Absorbed dose small intestine: 2.81 Gy
  Absorbed dose spleen: 4.05 Gy
  Absorbed dose stomach wall: 4.14 Gy
  Absorbed dose testes: 0.23 Gy
  Absorbed dose total body: 1.97 Gy
  Absorbed dose urinary bladder: 0.24 Gy
